Test results reported in patent CN114031685A (INST MILITARY MEDICINE ACADEMY MILITARY SCIENCES PLA, dated 2022).

How the values were obtained:
[1] = target: 新冠病毒野生型 S蛋白 (on pseudovirus / live virus) (SARS-CoV-2, UniProt P0DTC2 14-1273); assay: cell-based or functional assay
SARS-CoV-2 NTD蛋白 = target: T1, SARS-CoV-2 NTD蛋白 (SARS-CoV-2, UniProt P0DTC2 14-303); assay: ELISA, antigen coated at 2 μg/mL
T1 construct: domain: NTD

SARS-CoV-2 WT S2蛋白 = target: T2, SARS-CoV-2 WT S2蛋白 (SARS-CoV-2, UniProt P0DTC2 686-1213); assay: ELISA, antigen coated at 2 μg/mL
T2 construct: domain: S2

B1: 抗SARS-CoV-2全人源单克隆抗体ZW2G10 (antibody, V domains shown)
VH: EVQLVESGGGLVQPGRSLRLSCAASGFTFDDYAMHWVRQAPGKGLEWVSGITWNSGTIGYADSVKGRFIISRDNAKNSLHLQMNSLRVEDTALYYCAKDNSDYSGYYWELENYGMDVWGQGTTVTVSS
VL: QSVLTQPPSVSGAPGQRVTISCTGSSSNIGAGYDVHWYQQLPGTAPKLLIYDNNNRPSGVPDRFSGSKSGTSASLAITGLQAEDEADYYCQSFDSSLSGVVFGGGTRLTVLR
notes: also called 单抗ZW2G10
假病毒中和 EC50 [1]: 0.0142 µg/mL | 真病毒中和 EC50 (Vero E6) [1]: 1.08 µg/mL | binding result (SARS-CoV-2 NTD蛋白): no binding | binding result (SARS-CoV-2 WT S2蛋白): no binding
